In general, Km refers to the substrate concentration at which the rate is half of its maximum. By kcat is commonly meant the number of substrate molecules converted per active site and unit of time at saturation.

Data on four proteins can be found in publication PMC9728165, “Improving Catalytic Efficiency and Changing Substrate Spectrum for Asymmetric Biocatalytic Reductive Amination” (Journal of Microbiology and Biotechnology, 2019).

Substrate in series [1]: N[C@@H](Cc1ccccc1)C(=O)O
In words: purified protein. The class given is biochemical, Halalkalibacterium halodurans. As to conditions: oxidative deamination, 2 mM NAD+, 50 mM glycine-KCl-KOH pH 10.4, 25°C.

Substrate in series [2]: O=C(O)C(=O)Cc1ccccc1
Put plainly: purified protein. As to conditions: reductive amination, 500 mM ammonia, 100 microM NADH, glycine-KCl-KOH pH 10.4, 25°C. The class given is biochemical, Halalkalibacterium halodurans.

B1: PheDH (Halalkalibacterium halodurans C-125) (protein)
chain: MLTKTPTVTSTLDIFTEMAEHEQVLFCHDPSSGLRAIIAIHDTTLGPALGGCRMYPYQTTEDALRDVLRLSKGMTQKCAAADVDFGGGKAVIIGDPAKDKSANLFRAFGQFVESLNGRFYTGTDMGTTMEDFVHALKETNGIVGIPKEYGGSGDSSVPTAKGVINSLKAISQVVLKDKQFSGRTYAIQGLGKVGFKVAEELLKEGNDLYVSDLQESLPLRLQQLGQRLGRHVEILHGDEIYEAAADVFVPCAQGAILNDATIARLKVKAIAGAANNQLEAERHGQMLHDQGIWFAPDYIVNSGGLIQVADELYGSNEKRVLSKTNAIYDTILEIFHQAERHHITTLQAANQLCERRIRERARRNNFFVNRIRPKWNLRK
Turning to B1, in series [1], the Km came to 6.88 ± 0.41 mM and the kcat worked out at 149.08 ± 0.21 min⁻¹. Further, in series [2], the Km amounted to 0.337 ± 0.05 mM and the kcat was determined as 617.78 ± 1.0 min⁻¹.

B2: PheDH (Halalkalibacterium halodurans C-125; E113D) (protein)
chain: MLTKTPTVTSTLDIFTEMAEHEQVLFCHDPSSGLRAIIAIHDTTLGPALGGCRMYPYQTTEDALRDVLRLSKGMTQKCAAADVDFGGGKAVIIGDPAKDKSANLFRAFGQFVDSLNGRFYTGTDMGTTMEDFVHALKETNGIVGIPKEYGGSGDSSVPTAKGVINSLKAISQVVLKDKQFSGRTYAIQGLGKVGFKVAEELLKEGNDLYVSDLQESLPLRLQQLGQRLGRHVEILHGDEIYEAAADVFVPCAQGAILNDATIARLKVKAIAGAANNQLEAERHGQMLHDQGIWFAPDYIVNSGGLIQVADELYGSNEKRVLSKTNAIYDTILEIFHQAERHHITTLQAANQLCERRIRERARRNNFFVNRIRPKWNLRK
Turning to B2, the Km was found to be 8.28 ± 0.4 mM in series [1] and 7.607 ± 0.2 mM in series [2]. Moreover, the kcat in series [1] turned out to be 731.58 ± 0.3 min⁻¹; in series [2], 1507.42 ± 1.0 min⁻¹.

B3: PheDH (Halalkalibacterium halodurans C-125; N276L) (protein)
chain: MLTKTPTVTSTLDIFTEMAEHEQVLFCHDPSSGLRAIIAIHDTTLGPALGGCRMYPYQTTEDALRDVLRLSKGMTQKCAAADVDFGGGKAVIIGDPAKDKSANLFRAFGQFVESLNGRFYTGTDMGTTMEDFVHALKETNGIVGIPKEYGGSGDSSVPTAKGVINSLKAISQVVLKDKQFSGRTYAIQGLGKVGFKVAEELLKEGNDLYVSDLQESLPLRLQQLGQRLGRHVEILHGDEIYEAAADVFVPCAQGAILNDATIARLKVKAIAGAANLQLEAERHGQMLHDQGIWFAPDYIVNSGGLIQVADELYGSNEKRVLSKTNAIYDTILEIFHQAERHHITTLQAANQLCERRIRERARRNNFFVNRIRPKWNLRK
B3: in series [1], the Km came out at 8.71 ± 0.2 mM and the turnover number (kcat) turned out to be 530.61 ± 4.12 min⁻¹. Further, in series [2], the Km was determined as 1.05 ± 0.1 mM and the kcat was 1879.26 ± 2.3 min⁻¹.

B4: PheDH (Halalkalibacterium halodurans C-125; E113D/N276L) (protein)
chain: MLTKTPTVTSTLDIFTEMAEHEQVLFCHDPSSGLRAIIAIHDTTLGPALGGCRMYPYQTTEDALRDVLRLSKGMTQKCAAADVDFGGGKAVIIGDPAKDKSANLFRAFGQFVDSLNGRFYTGTDMGTTMEDFVHALKETNGIVGIPKEYGGSGDSSVPTAKGVINSLKAISQVVLKDKQFSGRTYAIQGLGKVGFKVAEELLKEGNDLYVSDLQESLPLRLQQLGQRLGRHVEILHGDEIYEAAADVFVPCAQGAILNDATIARLKVKAIAGAANLQLEAERHGQMLHDQGIWFAPDYIVNSGGLIQVADELYGSNEKRVLSKTNAIYDTILEIFHQAERHHITTLQAANQLCERRIRERARRNNFFVNRIRPKWNLRK
Consider B4, for which, in series [1], the Km stood at 5.14 ± 0.3 mM and the kcat is 675.58 ± 3.3 min⁻¹. Moreover, in series [2], the Km stood at 0.812 ± 0.01 mM and the kcat worked out at 2345.11 ± 4.0 min⁻¹.
